Ends that are not written are not given here.
Biological target: IgE of patient serum 3 (human)
Assay: ELISA: serum IgE captured on an anti-human IgE coated plate, epitope 2 peptide (FITC-tagged) titrated, fluorescence (RFU)

EC50 (read off the curve): 10 µM
B1: FITC-tagged epitope 2 peptide of Ara h 2 (peptide)
peptide: ERDPYSPSQDPYSPS
modifications: also: FITC tag, site not given here

Source: patent US20180272008A1
